Data: article PMC8872791, “MadR mediates acyl CoA-dependent regulation of mycolic acid desaturation in mycobacteria” (Proceedings of the National Academy of Sciences of the …, 2022)

Key:
[1] = target: T1, MadR (Mycobacterium tuberculosis H37Rv) (UniProt P9WMD9); test: EMSA
T1 sequence: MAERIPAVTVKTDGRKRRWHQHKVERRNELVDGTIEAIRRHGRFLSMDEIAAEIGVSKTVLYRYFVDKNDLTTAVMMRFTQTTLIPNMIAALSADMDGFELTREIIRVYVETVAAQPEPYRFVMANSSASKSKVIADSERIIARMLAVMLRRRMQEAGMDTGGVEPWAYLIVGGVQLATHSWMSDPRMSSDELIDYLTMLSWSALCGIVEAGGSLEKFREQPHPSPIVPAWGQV

MadR = target: T2, MadR (Mycobacterium tuberculosis H37Rv, UniProt P9WMD9 1-234); test: EMSA; conditions: protein: recombinant; tags: His-tag implied (pET28a, cobalt IMAC); chain copies: 2; blunt
T2 sequence: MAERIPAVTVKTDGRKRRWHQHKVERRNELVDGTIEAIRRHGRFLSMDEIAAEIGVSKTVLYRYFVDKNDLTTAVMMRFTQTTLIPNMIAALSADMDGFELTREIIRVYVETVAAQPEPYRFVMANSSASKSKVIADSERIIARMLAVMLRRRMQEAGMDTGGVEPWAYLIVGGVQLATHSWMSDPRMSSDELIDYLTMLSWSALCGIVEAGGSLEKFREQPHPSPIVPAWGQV

Row | Molecule | binding [1] | binding result (MadR)
1 | GGGCCGAACATACTCACCCGGATCGGAGGGCCGAGGACACGGTCGAACGAGGGGCATGACCCGGTGCGGGGCTTCTTGCACTCGGCATAGGCGAGTGCTAAGAATAACGTTGGCACTCGCGACCGGTGAGTGCTAGGTCGGGACGGTGAGGCCAGGCCCGTCGTCGCAGCGAGTGGCAGCGAGGACAACTTGAGCCGTCCGTCGCGGGCACTGCGCCCGGCCAGCGTAAGTAGCGGGGTTGCCGTCACCCGGTGACCCCCGTTTCATCCCCGATCCGGAGGAATCACTTCGCA (double strand) [hsp60 promoter] | no binding | 
2 | desA1 promoter -19/+31 (dsDNA) DNA 1: CAGTTATCTGTGTCTAATGGTTGCAGTCAATATATCTGTGTCTCTCGGTA DNA 2: TACCGAGAGACACAGATATATTGACTGCAACCATTAGACACAGATAACTG |  | binds
3 | desA2 promoter -36/+14 (dsDNA) DNA 1: TTCACGAAATCTGTGTATGCGAGTTACAGTTACCGCATGGCACAGAAACC DNA 2: GGTTTCTGTGCCATGCGGTAACTGTAACTCGCATACACAGATTTCGTGAA |  | binds
